These results are taken from US12441803B2, “Engineered CD25 polypeptides and uses thereof” (iBio, Inc., priority 2018, dated 2025).

First the molecules themselves.
T1: CD25 (Homo sapiens, UniProt P01589)
T1 sequence (P01589 22-272): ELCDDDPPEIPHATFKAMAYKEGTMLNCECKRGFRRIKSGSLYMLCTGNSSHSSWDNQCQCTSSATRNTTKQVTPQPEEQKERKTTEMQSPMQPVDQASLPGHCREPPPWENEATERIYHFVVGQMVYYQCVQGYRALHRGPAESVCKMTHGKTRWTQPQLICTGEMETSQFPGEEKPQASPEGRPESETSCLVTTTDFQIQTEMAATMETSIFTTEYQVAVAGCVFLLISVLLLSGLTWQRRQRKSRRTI

B1: YU400-B07: anti-CD25 scFv clone, SEQ ID NO: 822 (protein, listed as Mus musculus)
scFv: PGRSLRLSCAASGFTFSSYGMHWVRQAPGKGLEWVAVISYDGSNKYYADSVKGRFTISRDNSKNTLYLQMNSLRAEDTAVYYCAKGDVNYGMDVWGQGTTVTVSSCAKGDVNYGMDVWSYVLTQPPSVSVAPGKTARITCGGNNIGSKSVHWYQQKPGQAPVLVVYDDTDRPSGIPERFSGSNSGNTATLTISRVEAGDEADYYCQVWDSSSDLLWVFGGGTKLAVLCQVWDSSSDLLWVF
B2: YU401-B01: anti-CD25 scFv clone, SEQ ID NO: 827 (protein, listed as Mus musculus)
scFv: PGSSVKVSCKASGGTFSSYAISWVRQAPGQGLEWMGGIIPIFGTANYAQKFQGRVTITADESTSTAYMELSSLRSEDTAVYYCAREMYYYYGMDVWGQGTTVTVSSCAREMYYYYGMDVWDIVMTQSPSSLSASVGDRVTITCRASQSIITYLNWYQQKPGKVPKLLIYAASSLQSGVPSRFSGSGSGTDFTLTISSLQPEDFATYYCQQSYSTPPTFGQGTKLEIKCQQSYSTPPTF
B3: YU389-A03: anti-CD25 scFv clone, SEQ ID NO: 730 (protein, listed as Mus musculus)
scFv: PSQTLSLTCTVSGGSISSGGYYWSWIRQHPGKGLEWIGYIYYSGSTYYNPSLKSRVTISVDTSKNQFSLKLSSVTAADTAVYYCARGNLWSGYYFWGQGTLVTVSSCARGNLWSGYYFWQSVLTQPPSVSAAPGQKVTISCSGSSSNIGNNFVSWYQQVPGTAPKLLTYDSTKRPAGIPDRFSGSKSGTSATLEIAGLQTGDEADYYCGSWDTNLSGYVFGTGTKVTVLCGSWDTNLSGYVF
B4: YU392-B11: anti-CD25 scFv clone, SEQ ID NO: 750 (protein, listed as Mus musculus)
scFv: PGATVKISCKVSGYTFTDYYMHWVQQAPGKGLEWMGLVDPEDGETIYAEKFQGRVTITADTSTDTAYMELSSLRSEDTAVYYCAVEGGRAPGTYYYDSSGLAYWGQGTLVTVSSCAVEGGRAPGTYYYDSSGLAYWQAGLTQPPSASGTPGQRVTISCSGSSSNIGSNYVYWYQQLPGTAPKLLIYSNNQRPSGVPDRFSGSKSGTSASLAISGLRSEDEADYYCATWDDSLSGVVFGGGTKLTVLCATWDDSLSGVVF
B5: YU400-D09: anti-CD25 scFv clone, SEQ ID NO: 823 (protein, listed as Mus musculus)
scFv: PGSSVKVSCKASGGTFSSYAISWVRQAPGQGLEWMGGIIPIFGTANYAQKFQGRVTITADESTSTAYMELSSLRSEDTAVYYCARDFNPFSITIFEMDVWGQGTTVTVSSCARDFNPFSITIFEMDVWQSVLTQPPSVSAAPGQKVTISCSGSSSNIGNNYVSWYQQLPGTAPKLLIYDNNKRPSGIPDRFSGSKSGTSATLGITGLQTGDEADYYCGTWDSSLSALVFGGGTKLTVLCGTWDSSLSALVF
B6: YU392-A09: anti-CD25 scFv clone, SEQ ID NO: 749 (protein, listed as Mus musculus)
scFv: PGATVKISCKVSGYTFTDYYMHWVQQAPGKGLEWMGLVDPEDGETIYAEKFQGRVTITADTSTDTAYMELSSLRSEDTAVYYCATEGRYGMDVWGQGTTVTVSSCATEGRYGMDVWQAVLTQPPSVSGTPGQRVTISCSGNNFNIGNNLVYWYQQLPGTAPKLLIYANDERPSGVPDRFSGSKSGTSASLAISGLRSEDDADYYCATWDDSLSGVVFGGGTKLTALCATWDDSLSGVVF
B7: YU398-A11: anti-CD25 scFv clone, SEQ ID NO: 818 (protein, listed as Mus musculus)
scFv: PGRSLRLSCAASGFTFSSYGMHWVRQAPGKGLEWVAVISYDGSNKYYADSVKGRFTISRDNSKNTLYLQMNSLRAEDTAVYYCAKGQGDGMDVWGQGTTVTVSSCAKGQGDGMDVWYELTQPPSASGTPGQRVTISCSGSSSNVGSRTVSWFQQLPGTAPKLLIYSNNLRPSGVPDRFSGSKSGTSASLAISGLQSEDEADYYCAAWDDSLIGHVFGTGTKVTVVCAAWDDSLIGHVF
B8: YU401-G07: anti-CD25 scFv clone, SEQ ID NO: 831 (protein, listed as Mus musculus)
scFv: LGRSLRLSCAASGFTFSSYGMHWVRQAPGKGLEWVAVISYDGSNKYYADSVKGRFTISRDNSKNTLYLQMNSLRAEDTAVYYCAKGDVNYGMDVWGQGTTVTVSSCAKGDVNYGMDVWSYVLTQPPSVSVAPGQTARISCGGSNIGSKTVNWYRKKAGQAPVLVVYDGRDRPSGIPERFSGSNSGNAATLIISRVEVGDEADYYCQVWDTSGDLHWAFGGGTKLTVLCQVWDTSGDLHWAF
B9: YU390-A11: anti-CD25 scFv clone, SEQ ID NO: 736 (protein, listed as Mus musculus)
scFv: PGRSLRLSCAASGFTFSSYGMHWVRQAPGKGLEWVAVISYDGSNKYYADSVKGRFTISRDNSKNTLYLQMNSLRAEDTAVYYCAKELLEGAFDIWGQGTMVTVSSCAKELLEGAFDIWSYVLTQPPSLSVAPGQTARITCGGDNIETKSVHWYQQRPGQAPVLVVYDDDDRPSGIPERFSGSNSGNTATLTISRVEAGDEADYYCQVWDSSSGHREVFGGRTKPALLCQVWDSSSGHREVF
B10: YU390-B12: anti-CD25 scFv clone, SEQ ID NO: 738 (protein, listed as Mus musculus)
scFv: PGRSLRLSCAASGFTFSSYGMHWVRQAPGKGLEWVAVISYDGSNKYYADSVKGRFTISRDNSKNTLYLQMNSLRAEDTAVYYCAKELLEGAFDIWGQGTMVTVSSCAKELLEGAFDIWSYVLTQPPSLSVAPGQTARITCGGDNIETKSVHWYQQRPGQAPVLVVYDDDDRPSGIPERFSGSNSGNTATLTISRVEAGDEADYYCQVWDSSSGHREVFGGGTKLTVLCQVWDSSSGHREVF
B11: YU403-G05: anti-CD25 scFv clone, SEQ ID NO: 835 (protein, listed as Mus musculus)
scFv: PSGDLSLTCDVSGGSISRSNWWIWVRQPPGKGLEWIGEIYHTGSTNYNPSLKRRVTISVDKSKNQFSLNLSSVTAADTAVYYCARGKGSYAFDIWGLGTMVTVSSCARGKGSYAFDIWVLTQPHSVSESPGKTVTISCTGSGGNIARNYVQWYQHRPGRAPSTVIYEDDRRPSGVPDRFSGSTDISSNSASLTISGLKTEDEADYYCQSYDGNNHMVFGGGTRVTVLCQSYDGNNHMVF
B12: YU397-D01: anti-CD25 scFv clone, SEQ ID NO: 817 (protein, listed as Mus musculus)
scFv: PSGTLSLTCAVSGGSISSSNWWSWVRQPPGKGLEWIGEIYHSGSTNYNPSLKSRVTISVDKSKNQFSLKLSSVTAADTAVYYCARARGGRYFDYWGQGTLVTVSSCARARGGRYFDYWDIVLTQSPSFLSASVGDRVTITCRASQGISTYLAWYQQKPGTAPKVLMYAASTLHSGVPSRFSGSGSGTEFTLTISSLQPEDFAIYYCQQLNGYPTTFGGGTRVEIKCQQLNGYPTTF

The assay addresses T1, CD25. Put plainly: Binding of human IgG1 format antibodies to CD25 by Octet. Conditions: read-out: Biosensor Measured CD25 Affinity. From the text: Thirty antibodies were selected for additional testing as full-length immunoglobulins. The heavy and light chain sequences were cloned into human immunoglobulin G (IgG1) format and expressed and purified.
(In general: In BLI a coated tip is dipped into the sample, and binding shifts an interference pattern.)
Turning to B1, the Kd worked out at 57.8 nM.
With B2, the Kd stood at 70.4 nM.
Turning to B3, the Kd amounted to 9.55 nM.
Regarding B4, the Kd worked out at 65.6 nM.
Next, B5: 54.6 nM.
Take B6: the Kd worked out at 12.4 nM.
Next, B7: 12.1 nM.
As for B8, the Kd came to 15.3 nM.
As for B9, the Kd stood at 13.3 nM.
As for B10, the Kd worked out at 13.7 nM.
For the molecule B11, the Kd was 31.9 nM.
B12: the Kd was determined as 3.86 nM.
